Target: TRPM4 of rat-derived INS-1 and RINm5F cells (endogenous) (rat) (UniProt Q9ESQ5)
Test: cell-based or functional assay

TRPM4 of rat-derived INS-1 and RINm5F cells (endogenous) (rat), sequence (Q9ESQ5 whole entry): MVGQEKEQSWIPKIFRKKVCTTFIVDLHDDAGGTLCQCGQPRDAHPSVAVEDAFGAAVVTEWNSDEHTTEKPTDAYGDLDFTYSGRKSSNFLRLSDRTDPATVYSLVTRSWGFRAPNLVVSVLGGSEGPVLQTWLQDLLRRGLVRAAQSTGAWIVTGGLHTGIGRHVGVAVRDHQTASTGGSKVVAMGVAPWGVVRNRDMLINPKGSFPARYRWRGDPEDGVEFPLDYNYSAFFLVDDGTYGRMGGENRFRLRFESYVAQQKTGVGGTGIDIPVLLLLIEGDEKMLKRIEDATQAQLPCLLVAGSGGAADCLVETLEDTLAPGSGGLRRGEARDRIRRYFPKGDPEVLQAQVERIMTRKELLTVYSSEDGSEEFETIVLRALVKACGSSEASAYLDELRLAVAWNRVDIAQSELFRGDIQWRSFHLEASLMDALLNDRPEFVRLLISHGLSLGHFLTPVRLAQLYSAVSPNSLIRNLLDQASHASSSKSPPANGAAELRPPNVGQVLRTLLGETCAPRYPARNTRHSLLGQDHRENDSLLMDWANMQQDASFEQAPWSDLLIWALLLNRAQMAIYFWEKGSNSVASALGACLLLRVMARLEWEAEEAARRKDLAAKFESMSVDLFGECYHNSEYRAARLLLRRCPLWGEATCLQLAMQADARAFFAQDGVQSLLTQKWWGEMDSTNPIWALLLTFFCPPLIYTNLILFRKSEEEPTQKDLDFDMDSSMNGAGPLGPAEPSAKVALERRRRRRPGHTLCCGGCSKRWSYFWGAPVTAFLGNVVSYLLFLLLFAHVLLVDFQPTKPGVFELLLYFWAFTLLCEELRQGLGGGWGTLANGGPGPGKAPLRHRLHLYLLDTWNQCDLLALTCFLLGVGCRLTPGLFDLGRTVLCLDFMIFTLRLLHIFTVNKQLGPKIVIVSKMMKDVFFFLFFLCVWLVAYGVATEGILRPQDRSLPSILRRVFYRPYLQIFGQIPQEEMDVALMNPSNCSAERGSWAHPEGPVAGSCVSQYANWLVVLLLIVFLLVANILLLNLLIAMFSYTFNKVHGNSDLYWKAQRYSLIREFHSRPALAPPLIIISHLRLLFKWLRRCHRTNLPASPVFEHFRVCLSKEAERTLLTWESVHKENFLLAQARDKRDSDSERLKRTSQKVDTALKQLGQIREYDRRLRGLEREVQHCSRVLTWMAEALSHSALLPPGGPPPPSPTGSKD

In the case of ΔN-TRPM4 (from UniProt Q8TD43 178-1214), the insulin secretion of INS-1 cells at 25 mM glucose, fold over basal 4 mM, static incubation (mock-transfected control ~2.2-fold) is reported as 1.3 fold.
